Measurements taken from patent publication US20250019439A1 (Adimab, published 2025).

What was measured:
CTL-62223 = molecular target: T1, CTL-62223; assay: SPR Carterra, yeast anti-ID
T1 construct: also called mosunetuzumab
Summary of the method: (§1)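 Surface plasmon resonance on a Carterra LSA at 25° C, HBSTE buffer. The anti-CD3 antibody is Fc-captured (100 nM, 5 min) and the anti-idiotype antibody serves as analyte; dissociation lasts 300s and the surface is regenerated with 10 mM glycine pH 1.7.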

ADI-26921 IgG = molecular target: T2, ADI-26921 IgG; assay: SPR Carterra, yeast anti-ID
T2 construct: anti-CD3 IgG
T2 sequence (VH, as listed by the source limits assumed, chain 1 of 2): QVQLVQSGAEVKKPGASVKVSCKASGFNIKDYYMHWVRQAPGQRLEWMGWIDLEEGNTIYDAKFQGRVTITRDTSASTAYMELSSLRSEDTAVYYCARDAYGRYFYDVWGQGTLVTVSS
T2 sequence (VL, as listed by the source limits assumed, chain 2 of 2): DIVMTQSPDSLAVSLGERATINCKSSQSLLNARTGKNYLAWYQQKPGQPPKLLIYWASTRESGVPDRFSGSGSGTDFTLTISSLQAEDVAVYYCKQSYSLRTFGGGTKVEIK
Summary of the method: as §1

ADI-26915 = molecular target: T3, ADI-26915; assay: SPR Carterra, yeast anti-ID
T3 construct: anti-CD3 antibody made in CHO cells, captured by anti-human Fc
Summary of the method: as §1

ADI-70327 = molecular target: T4, ADI-70327; assay: SPR Carterra, yeast anti-ID
T4 construct: anti-CD3 antibody made in CHO cells, captured by anti-human Fc
T4 sequence (VH, as listed by the source limits assumed, chain 1 of 2): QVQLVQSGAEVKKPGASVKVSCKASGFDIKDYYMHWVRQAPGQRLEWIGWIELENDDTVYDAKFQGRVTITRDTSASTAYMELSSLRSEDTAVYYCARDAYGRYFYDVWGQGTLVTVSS
T4 sequence (VL, as listed by the source limits assumed, chain 2 of 2): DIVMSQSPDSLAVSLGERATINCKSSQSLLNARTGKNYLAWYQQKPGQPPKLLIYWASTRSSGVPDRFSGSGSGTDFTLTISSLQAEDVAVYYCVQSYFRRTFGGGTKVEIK
Summary of the method: as §1

ADI-70330 = molecular target: T5, ADI-70330; assay: SPR Carterra, yeast anti-ID
T5 construct: anti-CD3 antibody made in CHO cells, captured by anti-human Fc
Summary of the method: as §1

CTL-62228 = molecular target: T6, CTL-62228; assay: SPR Carterra, yeast anti-ID
T6 construct: also called glofitamab
Summary of the method: as §1

ADI-48587 = molecular target: T7, ADI-48587; assay: SPR Carterra, yeast anti-ID
T7 construct: pH-dependent anti-CD3 antibody made in CHO cells
T7 sequence (VH, as listed by the source, chain 1 of 2): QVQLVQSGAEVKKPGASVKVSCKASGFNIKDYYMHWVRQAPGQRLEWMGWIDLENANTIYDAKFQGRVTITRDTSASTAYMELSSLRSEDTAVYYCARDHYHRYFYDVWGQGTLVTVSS
T7 sequence (VL, as listed by the source, chain 2 of 2): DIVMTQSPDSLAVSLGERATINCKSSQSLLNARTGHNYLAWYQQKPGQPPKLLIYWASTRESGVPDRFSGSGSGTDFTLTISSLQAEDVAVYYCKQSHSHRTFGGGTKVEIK
Summary of the method: as §1

ADI-70326 = molecular target: T8, ADI-70326; assay: SPR Carterra, yeast anti-ID
T8 construct: anti-CD3 antibody made in CHO cells, captured by anti-human Fc
T8 sequence (VH, as listed by the source limits assumed, chain 1 of 2): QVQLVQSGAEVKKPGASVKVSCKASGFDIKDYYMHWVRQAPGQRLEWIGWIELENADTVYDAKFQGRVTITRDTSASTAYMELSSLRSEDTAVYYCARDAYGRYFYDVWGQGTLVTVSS
Summary of the method: as §1

ADI-67445 = molecular target: T9, ADI-67445; assay: SPR Carterra, yeast anti-ID
T9 construct: anti-CD3 antibody made in CHO cells, captured by anti-human Fc
T9 sequence (VH, as listed by the source limits assumed, chain 1 of 2): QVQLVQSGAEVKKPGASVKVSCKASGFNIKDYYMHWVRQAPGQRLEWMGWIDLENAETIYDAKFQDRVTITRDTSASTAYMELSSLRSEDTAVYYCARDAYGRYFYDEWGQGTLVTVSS
T9 sequence (VL, as listed by the source limits assumed, chain 2 of 2): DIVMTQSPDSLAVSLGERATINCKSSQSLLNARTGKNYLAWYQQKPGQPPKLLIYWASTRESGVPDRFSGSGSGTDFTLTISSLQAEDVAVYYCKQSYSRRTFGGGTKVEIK
Summary of the method: as §1

CTL-62240 = molecular target: T10, CTL-62240; assay: SPR Carterra, yeast anti-ID
T10 construct: also called ONO-4685
T10 sequence (VH, as listed by the source, chain 1 of 2): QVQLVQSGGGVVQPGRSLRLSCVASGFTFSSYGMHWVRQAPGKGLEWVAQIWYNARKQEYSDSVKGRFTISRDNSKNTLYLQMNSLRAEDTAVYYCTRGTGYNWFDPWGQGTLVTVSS
T10 sequence (VL, as listed by the source, chain 2 of 2): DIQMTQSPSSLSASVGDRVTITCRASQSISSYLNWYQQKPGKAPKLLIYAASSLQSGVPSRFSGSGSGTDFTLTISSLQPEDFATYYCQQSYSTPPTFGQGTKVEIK
Summary of the method: as §1

ADI-26909 = molecular target: T11, ADI-26909; assay: SPR Carterra, yeast anti-ID
T11 construct: anti-CD3 antibody made in CHO cells, captured by anti-human Fc
Summary of the method: as §1

ADI-74967 = molecular target: T12, ADI-74967; assay: SPR Carterra, yeast anti-ID
T12 construct: pH-dependent anti-CD3 antibody made in CHO cells
T12 sequence (VL, as listed by the source, chain 2 of 2): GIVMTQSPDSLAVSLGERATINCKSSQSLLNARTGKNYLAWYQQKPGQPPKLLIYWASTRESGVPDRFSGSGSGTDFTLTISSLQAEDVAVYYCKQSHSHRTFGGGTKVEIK
Summary of the method: as §1

CTL-62227 = molecular target: T13, CTL-62227; assay: SPR Carterra, yeast anti-ID
T13 construct: also called odronextamab
T13 sequence (VH, as listed by the source, chain 1 of 2): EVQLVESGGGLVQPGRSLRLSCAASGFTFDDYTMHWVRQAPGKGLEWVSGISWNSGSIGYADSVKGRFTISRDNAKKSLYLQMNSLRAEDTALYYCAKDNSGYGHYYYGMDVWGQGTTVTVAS
T13 sequence (VL, as listed by the source, chain 2 of 2): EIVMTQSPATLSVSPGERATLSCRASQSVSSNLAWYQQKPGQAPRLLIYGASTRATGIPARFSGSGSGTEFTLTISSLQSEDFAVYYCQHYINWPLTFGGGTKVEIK
Summary of the method: as §1

ADI-76362 = molecular target: T14, ADI-76362; assay: SPR Carterra avidity, yeast anti-ID
T14 construct: anti-CD3 antibody made in CHO cells, captured by anti-human Fc
Summary of the method: as §1

ADI-74968 = molecular target: T15, ADI-74968; assay: SPR Carterra avidity, yeast anti-ID
T15 construct: pH-dependent anti-CD3 antibody made in CHO cells
T15 sequence (VH, as listed by the source, chain 1 of 2): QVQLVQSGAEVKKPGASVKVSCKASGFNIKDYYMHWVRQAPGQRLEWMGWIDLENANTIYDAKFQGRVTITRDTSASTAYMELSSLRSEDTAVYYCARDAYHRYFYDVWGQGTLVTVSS
T15 sequence (VL, as listed by the source, chain 2 of 2): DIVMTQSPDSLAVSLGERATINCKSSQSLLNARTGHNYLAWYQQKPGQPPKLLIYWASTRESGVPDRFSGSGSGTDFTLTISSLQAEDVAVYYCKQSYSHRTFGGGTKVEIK
Summary of the method: as §1

ADI-48592 = molecular target: T16, ADI-48592; assay: SPR Carterra avidity, yeast anti-ID
T16 construct: pH-dependent anti-CD3 antibody made in CHO cells
T16 sequence (VH, as listed by the source, chain 1 of 2): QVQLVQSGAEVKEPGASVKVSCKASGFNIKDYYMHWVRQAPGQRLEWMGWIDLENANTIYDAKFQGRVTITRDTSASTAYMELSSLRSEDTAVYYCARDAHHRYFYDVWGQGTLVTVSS
T16 sequence (VL, as listed by the source, chain 2 of 2): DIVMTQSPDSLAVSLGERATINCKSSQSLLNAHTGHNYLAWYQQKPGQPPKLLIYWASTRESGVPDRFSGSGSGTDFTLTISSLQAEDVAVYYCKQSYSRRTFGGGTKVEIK
Summary of the method: as §1

ADI-67450 = molecular target: T17, ADI-67450; assay: SPR Carterra avidity, yeast anti-ID
T17 construct: anti-CD3 antibody made in CHO cells, captured by anti-human Fc
Summary of the method: as §1

ADI-74965 = molecular target: T18, ADI-74965; assay: SPR Carterra avidity, yeast anti-ID
T18 construct: pH-dependent anti-CD3 antibody made in CHO cells
Summary of the method: as §1

ADI-48576 = molecular target: T19, ADI-48576; assay: SPR Carterra avidity, yeast anti-ID
T19 construct: pH-dependent anti-CD3 antibody made in CHO cells
T19 sequence (VH, as listed by the source, chain 1 of 2): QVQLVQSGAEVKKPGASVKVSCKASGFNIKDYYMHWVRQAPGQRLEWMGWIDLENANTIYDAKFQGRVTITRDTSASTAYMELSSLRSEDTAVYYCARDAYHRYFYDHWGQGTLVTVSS
T19 sequence (VL, as listed by the source, chain 2 of 2): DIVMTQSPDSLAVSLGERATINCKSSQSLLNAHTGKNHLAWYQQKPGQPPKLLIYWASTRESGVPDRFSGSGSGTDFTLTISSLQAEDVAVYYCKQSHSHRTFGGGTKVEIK
Summary of the method: as §1

ADI-76358 = molecular target: T20, ADI-76358; assay: SPR Carterra avidity, yeast anti-ID
T20 construct: anti-CD3 antibody made in CHO cells, captured by anti-human Fc
Summary of the method: as §1

ADI-76361 = molecular target: T21, ADI-76361; assay: SPR Carterra avidity, yeast anti-ID
T21 construct: anti-CD3 antibody made in CHO cells, captured by anti-human Fc
T21 sequence (VH, as listed by the source, chain 1 of 2): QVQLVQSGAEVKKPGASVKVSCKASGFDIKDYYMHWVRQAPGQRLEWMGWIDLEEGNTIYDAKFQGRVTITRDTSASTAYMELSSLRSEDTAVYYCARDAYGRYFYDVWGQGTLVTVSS
Summary of the method: as §1

ADI-26912 = molecular target: T22, ADI-26912; assay: SPR Carterra avidity, yeast anti-ID
T22 construct: anti-CD3 antibody made in CHO cells, captured by anti-human Fc
Summary of the method: as §1

ADI-26924 = molecular target: T23, ADI-26924; assay: SPR Carterra avidity, yeast anti-ID
T23 construct: anti-CD3 antibody made in CHO cells, captured by anti-human Fc
Summary of the method: as §1

ADI-67447 = molecular target: T24, ADI-67447; assay: SPR Carterra avidity, yeast anti-ID
T24 construct: anti-CD3 antibody made in CHO cells, captured by anti-human Fc
Summary of the method: as §1

ADI-76360 = molecular target: T25, ADI-76360; assay: SPR Carterra avidity, yeast anti-ID
T25 construct: anti-CD3 antibody made in CHO cells, captured by anti-human Fc
Summary of the method: as §1

ADI-50024 = molecular target: T26, ADI-50024; assay: SPR Carterra avidity, yeast anti-ID
T26 construct: anti-CD3 antibody made in CHO cells, captured by anti-human Fc
Summary of the method: as §1

ADI-76359 = molecular target: T27, ADI-76359; assay: SPR Carterra avidity, yeast anti-ID
T27 construct: anti-CD3 antibody made in CHO cells, captured by anti-human Fc
Summary of the method: as §1

ADI-26916 IgG = molecular target: T28, ADI-26916 IgG; assay: SPR Carterra avidity, yeast anti-ID
T28 construct: anti-CD3 IgG
T28 sequence (VH, as listed by the source, chain 1 of 2): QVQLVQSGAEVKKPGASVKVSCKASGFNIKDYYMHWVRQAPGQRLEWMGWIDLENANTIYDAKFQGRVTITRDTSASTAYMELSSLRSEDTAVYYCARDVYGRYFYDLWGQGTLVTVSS
Summary of the method: as §1

ADI-74966 = molecular target: T29, ADI-74966; assay: SPR Carterra avidity, yeast anti-ID
T29 construct: pH-dependent anti-CD3 antibody made in CHO cells
Summary of the method: as §1

ADI-48650 = molecular target: T30, ADI-48650; assay: SPR Carterra avidity, yeast anti-ID
T30 construct: pH-dependent anti-CD3 antibody made in CHO cells
Summary of the method: as §1

ADI-26919 = molecular target: T31, ADI-26919; assay: SPR Carterra avidity, yeast anti-ID
T31 construct: anti-CD3 antibody made in CHO cells, captured by anti-human Fc
T31 sequence (VH, as listed by the source limits assumed, chain 1 of 2): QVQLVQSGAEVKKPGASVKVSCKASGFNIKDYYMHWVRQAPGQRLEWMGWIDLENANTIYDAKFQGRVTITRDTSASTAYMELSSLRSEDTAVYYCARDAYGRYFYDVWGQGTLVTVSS
Summary of the method: as §1

ADI-26913 IgG = molecular target: T32, ADI-26913 IgG; assay: SPR Carterra avidity, yeast anti-ID, *koff limit
T32 construct: anti-CD3 IgG
Summary of the method: as §1

ADI-26943 = molecular target: T33, ADI-26943; assay: SPR Carterra avidity, yeast anti-ID, *koff limit
T33 construct: anti-CD3 antibody made in CHO cells, captured by anti-human Fc
Summary of the method: as §1

ADI-76357 = molecular target: T34, ADI-76357; assay: SPR Carterra avidity, yeast anti-ID, *koff limit
T34 construct: anti-CD3 antibody made in CHO cells, captured by anti-human Fc
Summary of the method: as §1

ADI-26920 IgG = molecular target: T35, ADI-26920 IgG; assay: SPR Carterra avidity, yeast anti-ID, *koff limit
T35 construct: anti-CD3 IgG
Summary of the method: as §1

ADI-26906 IgG = molecular target: T36, ADI-26906 IgG; assay: SPR Carterra avidity, yeast anti-ID, *koff limit
T36 construct: anti-CD3 IgG
Summary of the method: as §1

ADI-22523 Fab = molecular target: T37, ADI-22523 Fab; assay: BLI; tip anti-ID IgG, solution ADI-22523 Fab
T37 construct: anti-CD3 Fab by papain digestion of the IgG
Summary of the method: (§2)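 Bio-layer interferometry with anti-ID IgG loaded on AHC tips. KD (koff/kon) from 1:1 binding model fit; avid format.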

ADI-22523 IgG = molecular target: T38, ADI-22523 IgG; assay: BLI; tip anti-ID IgG, solution ADI-22523 IgG
T38 construct: anti-CD3 IgG
Summary of the method: as §2

T1 sequence (VH, as listed by the source, chain 1 of 2): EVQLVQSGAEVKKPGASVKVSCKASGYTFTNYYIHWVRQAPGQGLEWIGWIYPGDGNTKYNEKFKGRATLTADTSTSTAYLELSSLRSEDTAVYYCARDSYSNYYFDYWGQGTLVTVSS
T1 sequence (VL, as listed by the source, chain 2 of 2): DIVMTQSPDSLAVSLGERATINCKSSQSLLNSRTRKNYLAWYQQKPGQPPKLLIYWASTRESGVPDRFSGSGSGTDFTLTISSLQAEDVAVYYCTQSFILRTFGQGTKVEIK

B1: ADI-34144 (antibody, V domains shown)
VH: EVQLLESGGGLVQPGGSLRLSCAASGFTFSSYAMSWVRQAPGKGLEWVSTISGSGGSTYYADSVKGRFTISRDNSKNTLYLQMNSLRAEDTAVYYCARLGGRRGSGSSYYYYYGMDVWGQGTTVTVSS
VL: not shown
notes: anti-ID IgG
Q: Does B1 bind (CTL-62223)?
A: Result: no binding (tested: up to 200 nM)

Q: Does B1 bind (ADI-26921 IgG)?
A: Result: no binding (tested: up to 200 nM)

Q: Does B1 bind (ADI-26915)?
A: Result: no binding (tested: up to 200 nM)

Q: Does B1 bind (ADI-70327)?
A: Result: no binding (tested: up to 200 nM)

Q: Does B1 bind (ADI-70330)?
A: Result: no binding (tested: up to 200 nM)

Q: Does B1 bind (CTL-62228)?
A: Result: no binding (tested: up to 200 nM)

Q: Does B1 bind (ADI-48587)?
A: Result: no binding (tested: up to 200 nM)

Q: Does B1 bind (ADI-70326)?
A: Result: no binding (tested: up to 200 nM)

Q: Does B1 bind (ADI-67445)?
A: Result: no binding (tested: up to 200 nM)

Q: Does B1 bind (CTL-62240)?
A: Result: no binding (tested: up to 200 nM)

Q: Does B1 bind (ADI-26909)?
A: Result: no binding (tested: up to 200 nM)

Q: Does B1 bind (ADI-74967)?
A: Result: no binding (tested: up to 200 nM)

Q: Does B1 bind (CTL-62227)?
A: Result: no binding (tested: up to 200 nM)

Q: Does B1 bind (ADI-76362)?
A: Result: binds

Q: What about the Kd (ADI-74968) of the same binder?
A: Its Kd is 72 nM.

Q: Does B1 bind (ADI-48592)?
A: Result: binds

Q: Does B1 bind (ADI-67450)?
A: Result: binds

Q: Does B1 bind (ADI-74965)?
A: Result: binds

Q: Does B1 bind (ADI-48576)?
A: Result: binds

Q: Does B1 bind (ADI-76358)?
A: Result: binds

Q: Does B1 bind (ADI-76361)?
A: Result: binds

Q: Does B1 bind (ADI-26912)?
A: Result: binds

Q: And the Kd (ADI-26924)?
A: The Kd was 4.9 nM.

Q: What about the Kd (ADI-67447) of the same binder?
A: The Kd was 22 nM.

Q: Does B1 bind (ADI-76360)?
A: Result: binds

Q: Does B1 bind (ADI-50024)?
A: Result: binds

Q: And the Kd (ADI-76359)?
A: Its Kd is 17 nM.

Q: And the Kd (ADI-26916 IgG)?
A: The Kd was 16 nM.

Q: What about the Kd (ADI-74966) of the same binder?
A: The Kd was 59 nM.

Q: Does B1 bind (ADI-48650)?
A: Result: binds

Q: And the Kd (ADI-26919)?
A: The Kd was 32 nM.

Q: And the Kd (ADI-26913 IgG)?
A: Its Kd is 8.6 nM.

Q: What about the Kd (ADI-26943) of the same binder?
A: Its Kd is 5.1 nM.

Q: What about the Kd (ADI-76357) of the same binder?
A: The Kd was 6.3 nM.

Q: What about the Kd (ADI-26920 IgG) of the same binder?
A: Its Kd is 7.5 nM.

Q: What about the Kd (ADI-26906 IgG) of the same binder?
A: The Kd was 12 nM.

Q: And the Kd (ADI-22523 Fab)?
A: The Kd was 6.17 nM.

Q: What about the Kd (ADI-22523 IgG) of the same binder?
A: The Kd was 2.6 nM.
